Experiment [1] has as its target NapD with an N-terminal hexa His-tag (NapD^NHis) (Escherichia coli) (UniProt P0A9I5). Description: SAXS; purified NapD^NHis/NapA complex, P12 BioSAXS beamline (PETRA III), 7 °C.
Experiment [2] has the same target. Description: AUC; sedimentation equilibrium, 4 °C, about 100 kDa complex (fraction 80 of SEC), 0.5 to 1.0 mg/mL, interference and absorbance optics at 260, 280 and 300 nm.

This passage reports stoichiometry N results from paper PMC4159696.

Chain of UniProt P0A9I5 (P0A9I5 whole entry): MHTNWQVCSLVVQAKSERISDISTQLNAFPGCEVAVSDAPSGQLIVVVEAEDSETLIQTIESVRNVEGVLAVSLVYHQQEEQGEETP

The term stoichiometry N denotes the number of molecules, sites or subunits per partner or assembly. As to “full-length NapA precursor protein (from UniProt P33937 37-828) (natural protein)”, the stoichiometry N in experiment [1] and in experiment [2] was 1 throughout.
